Data from publication PMC12559329.

Molecular target: MutSβ (MSH2-MSH3) (human, UniProt P43246;P20585 1-934;1-1137)
Assay: EMSA; 2 mM ATP, 5 mM Mg2+, pUC19 competitor; 25 mM Tris-acetate pH 7.5, 1 mM DTT, 2 mM ATP, 5 mM MgCl2, 0.1 mg/ml albumin, 0.5 nM DNA, 3 ng/µl pUC19 competitor, 37 °C 30 min; native 6% PAGE
Conditions: protein: recombinant, tags: N-terminal FLAG on MSH2, N-terminal 6xHis on MSH3, copies: 1;1, label: 3'-32P on bottom strand (TdT, dCTP), 5' overhang 1 nt (G) on bottom

B1: (CAG)4 loop DNA (dsDNA)
DNA 1: ACGTCAGAGTCGCTGCGCTCAGTCGTTCAACTGCTCAGCAGCAGCAGTAACTATCGTCTTGAATCCAACCCGGTAAGATACG
DNA 2: GCGTATCTTACCGGGTTGGATTCAAGACGATAGTTAAGCAGTTGAACGACTGAGCGCAGCGACTCTGACGT
modifications: biotin on both strands (position in bold, not recoverable)
B1: binds (12-nt extrahelical (CAG)4 loop in top strand).

B2: (CAG)4 loop DNA with nick 3 nt downstream of loop (dsDNA)
DNA 1: ACGTCAGAGTCGCTGCGCTCAGTCGTTCAACTGCTCAGCAGCAGCAGTAA
DNA 2: TAACTATCGTCTTGAATCCAACCCGGTAAGATACG
DNA 3: B1 DNA 2
modifications: biotin on bottom strand; others unclear (bold lost)
B2: binds (12-nt loop and nick in top strand, as printed both left and right oligos contain the TAA at the junction (3 nt redundant)).
